The target of one series is T1, Recombinant Conglutinin (Bos taurus, UniProt P23805).
T1 sequence (P23805 211-371): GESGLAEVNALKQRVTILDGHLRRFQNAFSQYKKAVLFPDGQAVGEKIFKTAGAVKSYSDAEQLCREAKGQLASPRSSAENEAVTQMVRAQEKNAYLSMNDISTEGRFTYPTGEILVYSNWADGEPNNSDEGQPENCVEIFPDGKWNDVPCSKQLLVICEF
Description: Sugar inhibition of binding to mannan-coated plates (ELISA). In general terms: ELISA stands for enzyme-linked immunosorbent assay.

In series [1] the target is iC3b on sheep erythrocyte cells (horse (from fresh horse serum)). Description: cell-based or functional assay.
In another series the test system is Hemagglutinin (HA). Particulars: Table 4, Western blotting.
The subject of series [2] is Influenza A viruses. Description: HI activity of collectins (method of Example 5). The class given is cell-based, Influenza A virus. Particulars: Table 4.
The test system of series [3] is Influenza A viruses. Kind of series: Neutralization activity of collectins (method of Example 6). The class given is cell-based, Influenza A virus.
Series [4] concerns Influenza A viruses. The class given is cell-based, Influenza A virus.
A further series has as its system A/Adachi/1/57(H2N2). Type of series: cell-based, Influenza A virus.
Series [5] concerns A/Ibaraki/1/90(H3N2). Kind of series: Hemagglutination Inhibition (HI) with chick's erythrocytes. Type of series: cell-based, Influenza A virus.
For series [6], the system named is A/Ibaraki/1/90(H3N2). Description: Neutralization activities in MDCK cells, PAP staining. Type of series: cell-based, Influenza A virus.
Series [7] deals with sheep erythrocyte cells with iC3b. Description: Conglutination activities, microtiter plate assay system. The class given is cell-based. The conditions noted are these: 1% sheep erythrocyte cells with iC3b, 37° C., veronal buffer. How it is done: Conglutination activities of the recombinant conglutinin and the native conglutinin were evaluated by Microtiter plate assay system. Sheep erythrocyte cells with iC3b were prepared according to the method of Wakamiya et al., (Biochem. Biophys. Res. Comm., Vol. 187, pp. 1270-1278, 1992). Namely, 1% sheep erythrocyte cells with iC3b were prepared by priming with a mixture of ten-fold diluted fresh horse serum and equivalent amount of anti-Forssmann antibody, and incubated at 37° C. for ten minutes.
50 μl of 1% sheep erythrocyte cells with iC3b and 50 μl of the recombinant conglutinin or 50 μl of the native conglutinin was added to the raw veronal buffer or the veronal buffer containing 30 mM N-acetylglucosamine. Then, they were incubated at 37° C. and the conglutination activities thereon were detected. The lowest concentration of the proteins to cause agglutination is regarded as titer of conglutination, then the results are shown in FIG. 8. In FIG. 8, Lane A is the native conglutinin, Lane B is the recombinant conglutinin and Lane C is the recombinant conglutinin containing 30 mM N-acetylglucosamine. Titer of conglutination on the native conglutinin was 0.16 μg/ml, while that of the recombinant conglutinin was 1.3-2.5 μg/ml.

The subject of a further series is A/Suita/1/89(H1N1). Description: Hemagglutination Inhibition (HI) with chick's erythrocytes. The class given is cell-based, Influenza A virus.

What is called IC50 is the midpoint of a concentration-inhibition curve. As to `C[C@@H](O)[C@H](O)[C@H](O)[C@@H](O)C=O` [D-Fucose], the IC50 on Recombinant Conglutinin came to 55.3 mM.

Regarding `OC[C@H]1O[C@H](O[C@H]2[C@H](O)[C@@H](O)[C@H](O)O[C@@H]2CO)[C@H](O)[C@@H](O)[C@@H]1O` [Maltose], the 50% inhibitory concentration (IC50) on Recombinant Conglutinin stood at 25.8 mM.

In the case of `C[C@H](O)[C@@H](O)[C@@H](O)[C@H](O)C=O` [L-Fucose], at Recombinant Conglutinin, the IC50 was 37.8 mM.

In series [1], “Native bovine conglutinin (from UniProt P23805 21-371)” gave a Titer of conglutination (lowest concentration of the proteins to cause agglutination) of 0.16 µg/mL.

For “native hMBP: native human mannan-binding protein (hMBP)”, the “HA Binding” value in the series with Hemagglutinin (HA) is given as “−”. Also, in the series with Influenza A viruses [2], the “HI Activity” value is “+”. Besides, the “Neutralization Activity (Minimum Protein Concentration)” value in the series with Influenza A viruses [3] was more than 5 µg/mL. Also, in the series on Influenza A viruses [3] (Table 4), the “Neutralization Activity” value is recorded as “−”. The “Neutralization Activity” value in the series on Influenza A viruses [3] (Table 5, class symbol) is listed as “−”. In addition, in the series on Influenza A viruses [4], the “Present Method” value was “+” and the “Viral Growth Inhibition Activity (Minimum Protein Concentration)” value was 0.05 µg/mL. Further, the “area of the infected focus / viral growth” value in the series with Influenza A viruses [4] (0, 0.25 and 0.5 μg/ml, three days, MDCK cells (FIG. 14)) was “reduced the area of the infected focus in a dose-dependent manner”. Moreover, the “Viral Growth Inhibition Activity” value in the series on Influenza A viruses [4] (Table 6, class symbol) is reported as “+”.

Regarding `CC(=O)N[C@H]1C(O)O[C@H](CO)[C@@H](O)[C@@H]1O` (stereo partly drawn) [N-Acetyl-D-Glucosamine], the IC50 at Recombinant Conglutinin turned out to be 0.65 mM.

As to `O=C[C@@H](O)[C@@H](O)[C@H](O)[C@H](O)CO` [D-Mannose], the IC50 on Recombinant Conglutinin came to 12.3 mM.

As to `OC[C@H]1O[C@@H](O[C@H]2[C@H](O)[C@@H](O)C(O)O[C@@H]2CO)[C@H](O)[C@@H](O)[C@H]1O` (stereo partly drawn) [Lactose], the IC50 at Recombinant Conglutinin is more than 100 mM.

Regarding `CC(=O)N[C@@H]1C(O)O[C@H](CO)[C@@H](O)[C@@H]1O` (stereo partly drawn) [N-Acetyl-D-Mannosamine], the 50% inhibitory concentration (IC50) on Recombinant Conglutinin is 26.6 mM.

As for `O=C[C@H](O)[C@@H](O)[C@@H](O)[C@H](O)CO` [Galactose], on Recombinant Conglutinin, the IC50 was found to be 46.8 mM.

B1: Native Conglutinin: animal lectin of the calcium-dependent mammalian C-type lectin family existing in bovine serum (protein, UniProt P23805 21-371, looked up)
Conglutinin: AEMTTFSQKILANACTLVMCSPLESGLPGHDGQDGRECPHGEKGDPGSPGPAGRAGRPGWVGPIGPKGDNGFVGEPGPKGDTGPRGPPGMPGPAGREGPSGKQGSMGPPGTPGPKGETGPKGGVGAPGIQGFPGPSGLKGEKGAPGETGAPGRAGVTGPSGAIGPQGPSGARGPPGLKGDRGDPGETGAKGESGLAEVNALKQRVTILDGHLRRFQNAFSQYKKAVLFPDGQAVGEKIFKTAGAVKSYSDAEQLCREAKGQLASPRSSAENEAVTQMVRAQEKNAYLSMNDISTEGRFTYPTGEILVYSNWADGEPNNSDEGQPENCVEIFPDGKWNDVPCSKQLLVICEF
With B1, the “Expression Concentration on Hemagglutination Inhibition (HI)” value is more than 5 µg/mL with A/Adachi/1/57(H2N2), 0.08 µg/mL in the series on A/Ibaraki/1/90(H3N2) [5] and 0.08 µg/mL in the series with A/Suita/1/89(H1N1). Also, the “Neutralization Titer (concentration to inhibit half (50%) of the infection)” value with A/Ibaraki/1/90(H3N2) [6] worked out at 0.08 µg/mL. For the same molecule, the “Titer of conglutination (lowest concentration of the proteins to cause agglutination)” value in series [7] is 0.16 µg/mL. Moreover, the “HA Binding” value in the series with Hemagglutinin (HA) is recorded as “+”. In the series on Influenza A viruses [2], the “HI Activity” value is “+”. Also, the “Neutralization Activity” value in the series on Influenza A viruses [3] (Table 4) is “+”. Further, the “Present Method” value with Influenza A viruses [4] is reported as “−”.

B2: Bovine Conglutinin: bovine conglutinin of Table 5; native or recombinant not stated (protein, UniProt P23805 21-371, looked up)
Conglutinin: B1 Conglutinin
Regarding B2, the “Neutralization Activity (Minimum Protein Concentration)” value in the series with Influenza A viruses [3] was 0.09 µg/mL. Besides, in the series with Influenza A viruses [3] (Table 5, class symbol), the “Neutralization Activity” value is recorded as “+”.

B3: Human Surfactant Protein (hSP-D) Native: native human surfactant protein D (protein, UniProt P35247 21-375, looked up)
Pulmonary …: AEMKTYSHRTMPSACTLVMCSSVESGLPGRDGRDGREGPRGEKGDPGLPGAAGQAGMPGQAGPVGPKGDNGSVGEPGPKGDTGPSGPPGPPGVPGPAGREGPLGKQGNIGPQGKPGPKGEAGPKGEVGAPGMQGSAGARGLAGPKGERGVPGERGVPGNTGAAGSAGAMGPQGSPGARGPPGLKGDKGIPGDKGAKGESGLPDVASLRQQVEALQGQVQHLQAAFSQYKKVELFPNGQSVGEKIFKTAGFVKPFTEAQLLCTQAGGQLASPRSAAENAALQQLVVAKNEAAFLSMTDSKTEGKFTYPTGESLVYSNWAPGEPNDDGGSEDCVEIFTNGKWNDRACGEKRLVVCEF
Regarding B3, the “HA Binding” value with Hemagglutinin (HA) is listed as “+”. For the same molecule, in the series with Influenza A viruses [2], the “HI Activity” value is “+”. The “Neutralization Activity” value in the series on Influenza A viruses [3] (Table 4) is “+”. In addition, the “Present Method” value in the series with Influenza A viruses [4] is “−”.

B4: Human Surfactant Protein (hSP-D) Recombinant: recombinant human surfactant protein D (protein, UniProt P35247 21-375, looked up)
Pulmonary …: B3 Pulmonary …
Regarding B4, in the series with Influenza A viruses [2], the “HI Activity” value was “−”. The “Neutralization Activity” value with Influenza A viruses [3] (Table 4) is “−”. Also, the “Present Method” value in the series on Influenza A viruses [4] is given as “−”.

Source of the values: patent publication US6979727B2, “Recombinant conglutinin and producing method thereof” (Fuso Pharmaceutical Industries, Ltd., priority 1995, dated 2005).
